The text below walks through data of US20250025478.

Sequence of 3×-FLAG-RNF213^Y1275F (chain, as listed by the source Y1275F): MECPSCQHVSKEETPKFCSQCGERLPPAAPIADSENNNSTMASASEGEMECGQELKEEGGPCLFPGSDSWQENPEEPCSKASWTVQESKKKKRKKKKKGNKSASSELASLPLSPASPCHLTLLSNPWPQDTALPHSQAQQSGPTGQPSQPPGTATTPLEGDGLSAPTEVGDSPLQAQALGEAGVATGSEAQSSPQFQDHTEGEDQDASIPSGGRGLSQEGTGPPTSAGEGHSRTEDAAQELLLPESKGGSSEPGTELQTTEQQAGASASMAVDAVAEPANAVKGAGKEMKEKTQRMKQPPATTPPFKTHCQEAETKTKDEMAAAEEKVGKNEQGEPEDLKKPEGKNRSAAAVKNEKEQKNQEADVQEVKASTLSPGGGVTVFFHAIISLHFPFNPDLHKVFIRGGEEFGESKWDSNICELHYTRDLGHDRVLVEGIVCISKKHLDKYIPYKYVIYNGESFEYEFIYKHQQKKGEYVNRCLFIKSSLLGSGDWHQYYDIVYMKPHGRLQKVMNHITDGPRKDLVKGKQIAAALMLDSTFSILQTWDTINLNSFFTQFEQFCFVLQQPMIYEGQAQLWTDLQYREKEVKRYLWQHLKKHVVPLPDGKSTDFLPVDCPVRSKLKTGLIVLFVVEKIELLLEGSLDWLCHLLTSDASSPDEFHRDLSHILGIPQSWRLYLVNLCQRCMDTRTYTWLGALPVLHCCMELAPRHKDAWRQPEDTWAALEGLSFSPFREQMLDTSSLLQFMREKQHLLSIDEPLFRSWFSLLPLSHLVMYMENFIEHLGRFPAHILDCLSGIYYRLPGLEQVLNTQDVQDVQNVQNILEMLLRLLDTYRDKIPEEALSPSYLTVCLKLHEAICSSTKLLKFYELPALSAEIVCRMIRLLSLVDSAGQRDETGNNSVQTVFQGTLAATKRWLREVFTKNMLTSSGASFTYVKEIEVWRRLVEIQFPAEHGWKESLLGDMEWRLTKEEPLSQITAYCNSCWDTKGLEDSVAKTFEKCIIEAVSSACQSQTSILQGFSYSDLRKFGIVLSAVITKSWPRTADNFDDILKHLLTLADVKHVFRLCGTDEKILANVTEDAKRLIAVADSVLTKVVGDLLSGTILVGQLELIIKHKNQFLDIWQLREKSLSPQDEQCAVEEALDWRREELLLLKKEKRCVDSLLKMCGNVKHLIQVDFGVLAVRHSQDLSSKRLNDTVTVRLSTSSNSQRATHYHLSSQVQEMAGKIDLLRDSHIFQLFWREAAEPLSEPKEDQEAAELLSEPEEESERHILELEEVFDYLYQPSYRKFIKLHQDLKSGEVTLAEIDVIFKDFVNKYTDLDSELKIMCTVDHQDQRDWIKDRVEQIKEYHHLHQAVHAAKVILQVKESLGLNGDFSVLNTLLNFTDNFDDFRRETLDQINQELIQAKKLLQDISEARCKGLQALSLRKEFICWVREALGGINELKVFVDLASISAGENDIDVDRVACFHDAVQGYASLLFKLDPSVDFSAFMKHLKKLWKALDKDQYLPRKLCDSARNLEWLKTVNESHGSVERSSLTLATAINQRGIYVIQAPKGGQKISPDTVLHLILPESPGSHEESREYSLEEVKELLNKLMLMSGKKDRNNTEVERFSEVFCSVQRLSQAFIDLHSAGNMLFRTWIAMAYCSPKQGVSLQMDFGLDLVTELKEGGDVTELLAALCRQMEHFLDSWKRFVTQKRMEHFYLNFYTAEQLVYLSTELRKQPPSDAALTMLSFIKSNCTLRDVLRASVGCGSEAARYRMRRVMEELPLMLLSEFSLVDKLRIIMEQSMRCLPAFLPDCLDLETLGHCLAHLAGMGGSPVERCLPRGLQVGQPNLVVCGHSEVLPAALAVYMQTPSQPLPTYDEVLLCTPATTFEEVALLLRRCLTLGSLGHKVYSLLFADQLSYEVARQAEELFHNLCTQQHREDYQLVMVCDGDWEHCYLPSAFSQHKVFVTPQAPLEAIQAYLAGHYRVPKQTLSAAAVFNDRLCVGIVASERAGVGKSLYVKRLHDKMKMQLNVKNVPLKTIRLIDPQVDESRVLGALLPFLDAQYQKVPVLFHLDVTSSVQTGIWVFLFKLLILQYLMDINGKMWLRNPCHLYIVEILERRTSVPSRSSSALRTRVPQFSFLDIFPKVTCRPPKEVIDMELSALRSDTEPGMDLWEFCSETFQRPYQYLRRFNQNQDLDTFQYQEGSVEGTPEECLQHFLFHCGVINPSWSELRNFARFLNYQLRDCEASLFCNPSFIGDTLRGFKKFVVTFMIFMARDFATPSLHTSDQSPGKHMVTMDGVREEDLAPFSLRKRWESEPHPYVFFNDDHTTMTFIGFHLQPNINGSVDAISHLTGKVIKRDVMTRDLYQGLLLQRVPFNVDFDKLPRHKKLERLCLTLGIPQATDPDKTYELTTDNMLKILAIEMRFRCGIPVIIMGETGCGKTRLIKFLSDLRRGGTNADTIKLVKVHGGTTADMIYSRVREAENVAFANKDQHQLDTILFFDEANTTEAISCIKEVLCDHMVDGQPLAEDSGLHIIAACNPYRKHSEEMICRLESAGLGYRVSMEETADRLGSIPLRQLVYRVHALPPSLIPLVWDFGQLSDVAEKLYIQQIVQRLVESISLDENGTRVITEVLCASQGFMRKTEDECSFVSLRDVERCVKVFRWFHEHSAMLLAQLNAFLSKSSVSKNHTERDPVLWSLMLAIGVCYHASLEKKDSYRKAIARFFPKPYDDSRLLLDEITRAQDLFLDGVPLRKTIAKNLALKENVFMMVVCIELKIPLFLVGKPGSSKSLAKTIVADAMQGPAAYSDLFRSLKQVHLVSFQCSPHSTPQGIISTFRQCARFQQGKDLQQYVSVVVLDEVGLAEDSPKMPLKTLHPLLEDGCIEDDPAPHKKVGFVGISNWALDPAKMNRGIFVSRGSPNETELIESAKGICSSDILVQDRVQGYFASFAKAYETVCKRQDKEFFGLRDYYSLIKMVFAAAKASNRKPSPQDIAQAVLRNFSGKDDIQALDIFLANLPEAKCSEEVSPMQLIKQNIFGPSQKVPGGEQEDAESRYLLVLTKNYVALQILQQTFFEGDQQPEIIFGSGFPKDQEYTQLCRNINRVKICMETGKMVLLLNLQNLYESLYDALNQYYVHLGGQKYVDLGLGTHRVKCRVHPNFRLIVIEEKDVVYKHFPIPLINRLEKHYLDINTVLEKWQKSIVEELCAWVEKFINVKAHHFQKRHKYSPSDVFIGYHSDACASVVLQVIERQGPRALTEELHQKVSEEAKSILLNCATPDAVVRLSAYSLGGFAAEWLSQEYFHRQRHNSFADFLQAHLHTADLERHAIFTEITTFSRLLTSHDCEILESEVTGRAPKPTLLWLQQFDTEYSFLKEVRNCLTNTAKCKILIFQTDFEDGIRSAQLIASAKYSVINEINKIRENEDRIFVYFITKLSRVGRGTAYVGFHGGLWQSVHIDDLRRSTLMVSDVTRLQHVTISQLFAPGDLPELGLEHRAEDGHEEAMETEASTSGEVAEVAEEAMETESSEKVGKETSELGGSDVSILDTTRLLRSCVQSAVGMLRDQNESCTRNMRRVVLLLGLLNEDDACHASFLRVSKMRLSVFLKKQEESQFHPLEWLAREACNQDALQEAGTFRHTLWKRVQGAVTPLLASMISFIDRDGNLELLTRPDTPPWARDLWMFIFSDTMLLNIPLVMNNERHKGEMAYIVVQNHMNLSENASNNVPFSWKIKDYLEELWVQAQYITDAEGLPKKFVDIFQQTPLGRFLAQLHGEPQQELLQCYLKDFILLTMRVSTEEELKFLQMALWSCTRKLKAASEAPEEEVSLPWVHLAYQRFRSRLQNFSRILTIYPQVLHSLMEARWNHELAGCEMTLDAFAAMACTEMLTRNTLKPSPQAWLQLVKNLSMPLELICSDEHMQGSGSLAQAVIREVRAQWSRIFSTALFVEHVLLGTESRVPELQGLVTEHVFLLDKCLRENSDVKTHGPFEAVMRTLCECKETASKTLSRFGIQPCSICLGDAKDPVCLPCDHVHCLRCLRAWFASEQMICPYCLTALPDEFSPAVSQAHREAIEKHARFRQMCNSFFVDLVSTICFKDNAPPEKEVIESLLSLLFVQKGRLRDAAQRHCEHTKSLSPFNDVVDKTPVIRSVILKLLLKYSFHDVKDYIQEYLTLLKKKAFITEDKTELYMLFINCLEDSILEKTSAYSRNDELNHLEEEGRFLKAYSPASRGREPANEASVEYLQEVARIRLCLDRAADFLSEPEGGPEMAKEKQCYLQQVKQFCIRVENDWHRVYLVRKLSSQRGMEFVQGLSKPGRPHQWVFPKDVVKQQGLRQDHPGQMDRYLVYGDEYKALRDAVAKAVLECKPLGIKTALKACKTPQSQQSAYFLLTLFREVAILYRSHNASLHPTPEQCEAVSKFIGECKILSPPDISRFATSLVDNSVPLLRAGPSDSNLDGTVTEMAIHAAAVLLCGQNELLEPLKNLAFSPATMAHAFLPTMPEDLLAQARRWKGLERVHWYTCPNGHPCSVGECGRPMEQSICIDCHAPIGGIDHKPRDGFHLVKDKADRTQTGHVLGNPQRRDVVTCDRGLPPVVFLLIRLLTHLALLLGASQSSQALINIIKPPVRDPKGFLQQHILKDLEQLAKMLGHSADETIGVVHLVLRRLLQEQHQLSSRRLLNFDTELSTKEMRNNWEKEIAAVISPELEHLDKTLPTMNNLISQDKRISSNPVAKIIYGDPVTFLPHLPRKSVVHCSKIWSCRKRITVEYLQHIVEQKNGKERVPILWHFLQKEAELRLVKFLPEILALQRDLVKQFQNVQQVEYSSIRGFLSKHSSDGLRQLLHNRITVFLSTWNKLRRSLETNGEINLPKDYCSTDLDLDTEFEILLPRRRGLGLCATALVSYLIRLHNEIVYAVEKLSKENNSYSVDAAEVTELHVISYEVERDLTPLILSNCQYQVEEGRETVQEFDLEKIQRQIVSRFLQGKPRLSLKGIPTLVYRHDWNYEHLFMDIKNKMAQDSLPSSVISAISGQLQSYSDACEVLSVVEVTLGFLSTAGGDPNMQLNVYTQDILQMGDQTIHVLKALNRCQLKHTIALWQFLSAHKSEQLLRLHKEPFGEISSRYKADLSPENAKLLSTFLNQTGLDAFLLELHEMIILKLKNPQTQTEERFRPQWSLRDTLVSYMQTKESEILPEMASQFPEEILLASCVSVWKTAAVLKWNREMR

B1: recombinant His-tagged ABL1 (protein)
chain: SPNYDKWEMERTDITMKHKLGGGQYGEVYEGVWKKYSLTVAVKTLKEDTMEVEEFLKEAAVMKEIKHPNLVQLLGVCTREPPFYIITEFMTYGNLLDYLRECNRQEVNAVVLLYMATQISSAMEYLEKKNFIHRDLAARNCLVGENHLVKVADFGLSRLMTGDTYTAHAGAKFPIKWTAPESLAYNKFSIKSDVWAFGVLLWEIATYGMSPYPGIDLSQVYELLEKDYRMERPEGCPEKVYELMRACWQWNPSDRPSFAEIHQAFETMFQESSISDEVEKELGK
B1: the “in vitro kinase assay (tyrosine phosphorylation)” value with 3×-FLAG-RNF213 was “His-ABL1 phosphorylated WT-RNF213, but not RNF213^Y1275F in a time- and ABL1-concentration-dependent manner”; with 3×-FLAG-RNF213^Y1275F it was “His-ABL1 phosphorylated WT-RNF213, but not RNF213^Y1275F”.
